Data taken from patent publication US11142588B2, “Polypeptides which bind C-X-C chemokine receptor type 4 (CXCR4) and methods of treating or reducing the risk of fibrosis and cancer” (AdAlta Limited, priority 2015, dated 2021).
Read-outs that look alike come from different tables or passages of the source. One block for each molecule: values may come before it.

Columns and labels:
Ramos tumor cells [1] = details: previous report, Kuhne et al 2013; cited from earlier work
[2] = Binding to null lipoparticles (off-target control)
Procedure: (FIGS. 2A-2C, 5A-5C, 11A-11D, 17A-17B) Kinetic binding analysis of selected i-bodies with immobilized CXCR4 lipoparticles were performed at 25° C. using Biacore T200 instrument (GE Healthcare, Uppsala, Sweden). Streptavidin immobilization was performed in 1×HBS-P+ running buffer (10 mM HEPES, 150 mM NaCl, 0.05% [v/v] Tween-20). Amine coupling kit (GE Healthcare) and the instructions therein were utilized for the attachment of Streptavidin (Sigma; diluted to 100 μg/mL in 10 mM sodium acetate buffer pH 4.5) in all four channels on the sensor chip surface simultaneously, resulting in >6,000 RU of Streptavidin being coupled (1 RU=1 pg protein/mm^2). All binding experiments involving lipoparticles were performed with 1×HBS/BSA (10 mM HEPES, 150 mM NaCl, 1 mg/mL BSA) as instrument running buffer. Biotinylated CXCR4 lipoparticles (Integral Molecular, Cat #LEV-101B; 3.6 U/mL as described in WO 2005/042695) were typically diluted 1 in 20 in the running buffer and immobilized onto a Streptavidin containing channel by injecting at […] for 1,800 sec resulting in captured response levels of greater than 2,500 RU. […] In order to determine binding kinetics, serial dilutions (three-fold) of i-bodies diluted in 1×HBS/BSA were injected over immobilized lipoparticles with the association and dissociation phases monitored for 60 sec and 600 sec, respectively. […]

[3] = biological target: CCR5 positive lipoparticles (Homo sapiens, UniProt P51681); assay: ELISA binding to CCR5 positive lipoparticles
Text: The mutant i-body clones were also examined for binding to CCR5 positive lipoparticles (FIG. 7B).

CXCR4 = CXCR4 (Homo sapiens, UniProt P61073); assay: β-arrestin BRET assay, antagonist mode with 100 nM SDF-1; format: cell-based; design: expressed in transfected cells; host or cells: HEK293FT; details: various concentrations
In short: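 Ten concentrations of i-body with 100 nM SDF-1 were applied to transiently transfected HEK293FT cells carrying CXCR4/Rluc8 donor and β-arrestin2/Venus acceptor. Emissions at 400-475 and 520-540 nm were read at 37 °C, and the vehicle-subtracted ratio gave the BRET signal (four independent duplicate experiments).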

Ramos tumor cells [4] = assay: Apoptosis assay (annexin V / propidium iodide flow cytometry); format: cell-based, human; details: annexin V and propidium iodide double positive, 24 or 72 hours
Procedure: The ability of an i-body of the invention to induce apoptosis in Ramos tumor cells (a human Burkitt's lymphoma cell line) was examined in an apoptosis assay according to the methods as described in Mishra M et al (2011) J Cell Mol Med 15(11):2462-77. I-bodies were incubated with Ramos cells and examined by flow cytometry after 24 or 72 hours. The cells were stained for annexin V and propidium iodide which are classic markers for apoptosis. Cells which were double positive were assessed to have become apoptotic.

CCRF-CEM cells = assay: Immunohistochemistry staining of tumours in spleen and liver of SCID/bg mice; details: 130 μg/ml
Procedure: Tissues were fixed in 10% neutral buffered formalin overnight and subsequently transferred into tissue cassettes and placed in 70% ethanol. The tissues were then paraffin embedded. Slides containing 4 μm sections were deparaffinized and hydrated by incubating them in two changes of xylene for five min each, followed by two changes of 100% ethanol for 3 min each, 70% ethanol for 2 min, 50% ethanol for 2 min, and distilled water for 5 min. Antigen retrieval was performed by incubating the slides in 10 mM Citric acid solution (pH 6.0) in an 80° C. oven overnight. The slides were subsequently washed in PBS and permeabilized in 10% methanol containing 0.4% H2O2 for 30 min. […] All slides were subsequently stained with biotinylated anti-His tag antibodies (Miltenyi Biotech) and developed using an HRP-DAB cell and tissue staining kit according to the manufacturer's instructions (R&D systems).

[5] = Laser induced choroidal neovascularisation model; format: in vivo, mouse; details: intravitreal, 1 μl up to 20 mg/ml
Procedure: The laser induced choroidal neovascularisation (CNV) is a well characterised and accepted model of choroidal neovascularisation (Fletcher E L et al. (2011) Prog Mol Biol Transl Sci 100:211-286). It is also a rapid method for determining the efficacy of potential treatments that target angiogenesis and fibrosis. Briefly, up to four laser spots are applied to the posterior eye using a continuous wave photocoagulation laser ([…] diode). The laser energy is high enough to create a break in Bruch's membrane. During the following 7-14 days, growth of blood vessels from the choroid into the retina occurs, and is quantified either immuocytochemically, or using fluorescein angiography.
Mice were treated as below: • Group 1 (n=10): laser both eyes-vehicle in one eye; i-body in the other • Group 2 (n=10): Laser one eye (no i-body); other eye unlasered. • The i-body drug was injected intravitreally in 1 μl volume at a concentration up to 20 mg/ml.
The expression of genes associated with angiogenesis and fibrosis was examined. Total RNA was isolated from the retina and RPE/choroidal samples using commercial spin columns (RNeasy, Qiagen, Valencia Calif.). A PCR gene array was used to assess the expression of 84 genes involved angiogenesis or fibrosis (Qiagen). Briefly, total RNA samples from untreated, laser treated eyes and untreated fellow eyes (n=9 each group, each 25 ng) were pooled within their respective treatment groups (3 independent experiments containing 3 pooled samples), reversed transcribed (RT2 first strand, Qiagen) and then underwent pre-amplification of the cDNA target templates (RT2 pre-AMP, Qiagen). Samples were added to a commercial mastermix (RT2 SYBR green mastermix, Qiagen) and amplified for 40 cycles (ABI 7900HT, Life Technologies, Grand Island N.Y.). Three independent arrays were performed for each treatment group. The data were analysed using delata delta Ct (ΔΔCt), expressed as fold change and regulation assessed using an unpaired t-test.

[6] = test system: normal and IPF lung fibroblasts; assay: Wound healing invasion assay of lung fibroblasts; format: cell-based, human; details: 130 μg/ml
Procedure: To determine the role of CXCR4 and CXCL12 in fibroblast invasion, normal and IPF lung fibroblasts were utilized in a wound healing invasion assay. ImageLock 96 well plates (Essen Bioscience) were coated with 50 μg/ml of Basement membrane extract (BME; Trevigen) for one hour at room temperature. Normal, and fibroblasts generated from lung biopsies of idiopathic pulmonary fibrosis (IPF) patients showing slow progression or rapid progression of the disease were plated (36,000 cells per well) on the BME-coated plates and incubated overnight. […] The BME was allowed to polymerize by incubating the plate at 37° C. for 15 minutes. The plates were then inserted into an IncuCyte Zoom imaging system and images were acquired every 2 hours for approximately 50 hours. Invasion was quantified using IncuCyte software (Essen Bioscience).

[7] = test system: ACTA2, COL1A1, COL3A1 and FN1 transcripts; assay: qPCR of pro-fibrotic transcripts in lung fibroblasts; format: cell-based, human; details: 130 μg/ml, 48 hours
Procedure: After 48 hours, RNA was extracted using Trizol reagent and reverse transcribed into cDNA using superscript II reverse transcriptase (Life technology) as previously described (Trujillo et al Sci Transl Med 2010 2; 57ra82). Complementary DNA (cDNA) was subsequently loaded into a Taqman plate and gene expression analysis were performed using predesigned primers for COL1A1, COL3A1, FN1, and aSMA. All Taqman analysis was performed using an Applied Bio system's Viia 7 instrument (Life technology). The results were then exported, normalized to 18s RNA expression and fold change analysis were calculated using Data Assist software (Life technologies).

CCL2 and CCL5 protein = assay: CCL2, CCL5, CXCL12 ELISA of fibroblast conditioned supernatants; format: cell-based, human; details: 48 hours
Text: Various reports indicate that CXCR4 signals in conjunction with other chemokine receptors, including CCR2.

CCR5 positive lipoparticles, sequence (P51681 whole entry): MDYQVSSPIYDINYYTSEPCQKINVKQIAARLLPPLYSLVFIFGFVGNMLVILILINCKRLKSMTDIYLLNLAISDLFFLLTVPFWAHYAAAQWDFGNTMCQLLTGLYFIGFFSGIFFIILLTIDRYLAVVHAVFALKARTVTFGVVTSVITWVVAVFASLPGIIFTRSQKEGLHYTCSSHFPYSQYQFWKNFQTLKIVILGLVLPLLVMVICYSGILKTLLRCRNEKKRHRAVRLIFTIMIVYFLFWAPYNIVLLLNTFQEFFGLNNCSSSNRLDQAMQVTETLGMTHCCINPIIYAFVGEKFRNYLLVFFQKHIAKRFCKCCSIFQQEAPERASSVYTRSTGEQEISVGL
CXCR4, sequence (P61073 whole entry): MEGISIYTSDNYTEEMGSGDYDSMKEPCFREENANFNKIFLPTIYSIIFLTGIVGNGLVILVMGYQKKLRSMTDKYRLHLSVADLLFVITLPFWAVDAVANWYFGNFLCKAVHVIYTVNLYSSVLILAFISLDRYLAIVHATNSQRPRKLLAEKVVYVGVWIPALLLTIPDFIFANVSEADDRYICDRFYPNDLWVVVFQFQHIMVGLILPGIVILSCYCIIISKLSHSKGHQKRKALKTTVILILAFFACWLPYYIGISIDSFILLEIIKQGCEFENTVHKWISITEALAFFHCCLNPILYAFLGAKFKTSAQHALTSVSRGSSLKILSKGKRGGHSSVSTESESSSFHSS

Molecule: MDX-1338: human anti-CXCR4 mAb
- induction of apoptosis in Ramos cells (Ramos tumor cells [1]): able to induce apoptosis

- binding to null lipoparticles [2]: very little binding
- binding to CCR5 positive lipoparticles [3]: very little binding
- β-arrestin activity (CXCR4): some degree of inhibition
B1: ADCX-272: CXCR4 binding i-body, SEQ ID NO: 14 (protein)
chain: LQVDIVPSQGEISVGESKFFLCQVAGHLEVRSISWFSPNGEKLTPNQQRISVVWNDDSSSTLTIYNANIDDAGIYKCVVEQRGRSQSYFSEATVNVKIFQ

B2: AM3-114-6H: AM3-114 with 6 His tag, containing the N-terminal sequence EAEA (protein)
chain: EAEALQVDIVPYQGEISVGESKFFLCQVAGSLSGIRISWFSPNGEKLTPNQQRISVVWNDDSSSTLTIYNANIDDAGIYKCVVWRTGGYRHRYLVLGEATVNVKIFQ
modifications: left off: small tags and cut ends
- induction of apoptosis in Ramos cells (Ramos tumor cells [4]): strongly induce apoptosis
- staining of CCRF-CEM cells in spleen and liver (CCRF-CEM cells): stained CCRF-CEM cells
- pathological angiogenesis / lesion size [5]: reduces pathological angiogenesis or lesion characteristics
- invasion of rapid-IPF (fast progressor) lung fibroblasts [6]: two out three
- invasion of slow-IPF lung fibroblasts [6]: inhibited invasion
- ACTA2, COL1A1, COL3A1 and FN1 transcript expression in slow-IPF lung fibroblasts [7]: markedly reduced
- CCL2 protein in IPF fibroblast conditioned supernatants (CCL2 and CCL5 protein): markedly increased
